# Earlier results as cited in article PMC10293842 (Proceedings of the National Academy of Sciences of the …, 2023).
# System: Omicron BA.1 and BA.2
molecule,measurement,value
"Adintrevimab (antibody, chains of the INN, looked up, V domains shown) VH: EVQLVESGGGLVKPGGSLRLSCAASGFTFSSYYMNWVRQAPGKGLEWVSSISEDGYSTYYPDSLKGRFTISRDSAKNSLYLQMNSLRADDTAVYYCARDFSGHTAWAGTGFEYWGQGTLVTVSS VL: QSVLTQPPSVSGAPGQRITISCTGSSSNIGAGYDVHWYQQLPGTAPKLLIYGSSSRNSGVPDRFSGSKSGTSASLAITGLQAEDEADYYCQSYDSSLSVLYTFGTGTKVTVL",decrease in activity,20 fold
